The source of these data is patent publication US20240124528A1 (ACADEMIA SINICA, published 2024).

In one experiment the target is T1, Flag-MLK4 (human, UniProt Q5TCX8 1-1036, limits assumed).
T1 construct: also called Flag-tagged WT MLK4; not shown: Flag tag
As to the kind of experiment: reciprocal co-IP, 293T cells, rIL-17B (FIG. 5C).

Experiment [1] deals with T2, mixed-lineage kinase 4 (MLK4), endogenous (human, UniProt Q5TCX8 1-1036, limits assumed).
T2 construct: also called KIAA1804; MAP3K21
As to the kind of experiment: co-IP with anti-HA beads, blot with anti-MLK4, rIL-17B (FIG. 5D).

Another experiment deals with T3, ACT1, endogenous (human, UniProt O43734 1-574, limits assumed).
T3 sequence (looked up): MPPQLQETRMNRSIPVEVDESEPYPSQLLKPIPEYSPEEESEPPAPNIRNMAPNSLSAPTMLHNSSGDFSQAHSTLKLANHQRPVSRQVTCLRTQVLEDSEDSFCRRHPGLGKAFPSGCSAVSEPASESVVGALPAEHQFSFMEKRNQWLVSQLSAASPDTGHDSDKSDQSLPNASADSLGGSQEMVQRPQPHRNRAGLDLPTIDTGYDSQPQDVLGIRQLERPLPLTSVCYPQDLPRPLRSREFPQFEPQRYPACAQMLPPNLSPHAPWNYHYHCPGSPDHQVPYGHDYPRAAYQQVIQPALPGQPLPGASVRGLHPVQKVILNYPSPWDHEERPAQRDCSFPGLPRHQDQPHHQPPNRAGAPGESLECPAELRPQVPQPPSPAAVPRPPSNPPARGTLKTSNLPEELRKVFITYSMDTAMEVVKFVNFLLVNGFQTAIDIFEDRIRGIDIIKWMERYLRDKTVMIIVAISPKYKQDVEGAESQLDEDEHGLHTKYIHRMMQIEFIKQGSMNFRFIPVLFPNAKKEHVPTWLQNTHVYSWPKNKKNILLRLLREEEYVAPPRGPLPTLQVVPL
As to the kind of experiment: co-IP with anti-Flag agarose, IL-17RB-KO BxPC3 cells, rIL-17B (FIG. 6G).

The next experiment deals with T4, TRAF6, endogenous (human, UniProt Q9Y4K3 1-522).
T4 sequence (looked up): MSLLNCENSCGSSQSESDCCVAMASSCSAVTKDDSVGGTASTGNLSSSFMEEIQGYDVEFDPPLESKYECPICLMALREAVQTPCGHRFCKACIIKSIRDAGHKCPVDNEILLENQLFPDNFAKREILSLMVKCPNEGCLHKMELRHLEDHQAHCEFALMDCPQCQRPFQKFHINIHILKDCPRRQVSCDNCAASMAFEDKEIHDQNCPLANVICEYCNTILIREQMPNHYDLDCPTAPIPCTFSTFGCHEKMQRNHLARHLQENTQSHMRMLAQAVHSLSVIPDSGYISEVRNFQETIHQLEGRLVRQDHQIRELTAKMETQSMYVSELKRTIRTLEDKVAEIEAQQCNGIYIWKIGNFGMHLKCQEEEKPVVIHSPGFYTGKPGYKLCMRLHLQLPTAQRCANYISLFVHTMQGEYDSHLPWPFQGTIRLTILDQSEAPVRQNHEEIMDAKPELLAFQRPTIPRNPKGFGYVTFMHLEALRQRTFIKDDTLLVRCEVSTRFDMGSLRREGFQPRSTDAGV
Described as above.

A further experiment addresses T5, TAK1, endogenous (human, UniProt O43318 1-606, limits assumed).
T5 sequence (looked up): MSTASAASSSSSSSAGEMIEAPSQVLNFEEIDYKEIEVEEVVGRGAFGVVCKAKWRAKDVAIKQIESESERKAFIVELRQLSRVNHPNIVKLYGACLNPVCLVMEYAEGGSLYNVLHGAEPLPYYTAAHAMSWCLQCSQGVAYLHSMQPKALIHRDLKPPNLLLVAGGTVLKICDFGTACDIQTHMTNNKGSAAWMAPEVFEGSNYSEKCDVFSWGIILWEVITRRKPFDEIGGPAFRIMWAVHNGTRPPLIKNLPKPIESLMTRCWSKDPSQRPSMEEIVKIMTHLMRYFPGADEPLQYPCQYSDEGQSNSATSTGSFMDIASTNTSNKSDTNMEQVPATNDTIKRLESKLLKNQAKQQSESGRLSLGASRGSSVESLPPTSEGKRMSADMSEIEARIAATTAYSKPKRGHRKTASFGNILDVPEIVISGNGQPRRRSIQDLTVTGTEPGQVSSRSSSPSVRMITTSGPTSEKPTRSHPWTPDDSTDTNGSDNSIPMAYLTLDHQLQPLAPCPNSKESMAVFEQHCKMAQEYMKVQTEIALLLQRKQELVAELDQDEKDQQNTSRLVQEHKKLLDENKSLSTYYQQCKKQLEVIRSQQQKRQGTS
The description is as above.

The target of experiment [2] is T6, IL-17RB-HA (C-terminally HA-tagged full-length IL-17RB, wild type) (human, UniProt Q9NRM6 18-502).
T6 construct: Full-length IL-17RB subcloned into pcDNA3.1, expressed in 293T, IL-17RB-KO BxPC3 or SU.86.86 cells; also called HA-IL-17RB; HA-tagged WT IL-17RB; not shown: HA tag, C-terminal
T6 sequence: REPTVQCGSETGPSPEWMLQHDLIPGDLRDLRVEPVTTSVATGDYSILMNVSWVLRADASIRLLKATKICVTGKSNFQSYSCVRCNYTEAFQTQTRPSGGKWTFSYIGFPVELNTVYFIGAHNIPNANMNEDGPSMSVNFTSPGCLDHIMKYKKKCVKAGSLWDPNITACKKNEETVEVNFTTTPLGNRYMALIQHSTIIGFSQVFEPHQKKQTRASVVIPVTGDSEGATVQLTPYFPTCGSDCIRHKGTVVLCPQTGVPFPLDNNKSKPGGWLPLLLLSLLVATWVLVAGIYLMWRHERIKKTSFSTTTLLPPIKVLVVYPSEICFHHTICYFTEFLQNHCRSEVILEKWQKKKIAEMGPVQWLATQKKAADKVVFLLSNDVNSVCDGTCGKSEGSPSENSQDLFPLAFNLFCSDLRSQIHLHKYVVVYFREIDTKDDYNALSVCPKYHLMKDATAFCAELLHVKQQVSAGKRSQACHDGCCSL
As to the kind of experiment: co-IP with anti-HA beads, IL-17RB-KO BxPC3 cells, 50 ng/ml rIL-17B (FIG. 14B).

Changes are numbered by the printed parent chain. In names and notes the source's numbering stands.

T1 sequence (Q5TCX8 whole entry): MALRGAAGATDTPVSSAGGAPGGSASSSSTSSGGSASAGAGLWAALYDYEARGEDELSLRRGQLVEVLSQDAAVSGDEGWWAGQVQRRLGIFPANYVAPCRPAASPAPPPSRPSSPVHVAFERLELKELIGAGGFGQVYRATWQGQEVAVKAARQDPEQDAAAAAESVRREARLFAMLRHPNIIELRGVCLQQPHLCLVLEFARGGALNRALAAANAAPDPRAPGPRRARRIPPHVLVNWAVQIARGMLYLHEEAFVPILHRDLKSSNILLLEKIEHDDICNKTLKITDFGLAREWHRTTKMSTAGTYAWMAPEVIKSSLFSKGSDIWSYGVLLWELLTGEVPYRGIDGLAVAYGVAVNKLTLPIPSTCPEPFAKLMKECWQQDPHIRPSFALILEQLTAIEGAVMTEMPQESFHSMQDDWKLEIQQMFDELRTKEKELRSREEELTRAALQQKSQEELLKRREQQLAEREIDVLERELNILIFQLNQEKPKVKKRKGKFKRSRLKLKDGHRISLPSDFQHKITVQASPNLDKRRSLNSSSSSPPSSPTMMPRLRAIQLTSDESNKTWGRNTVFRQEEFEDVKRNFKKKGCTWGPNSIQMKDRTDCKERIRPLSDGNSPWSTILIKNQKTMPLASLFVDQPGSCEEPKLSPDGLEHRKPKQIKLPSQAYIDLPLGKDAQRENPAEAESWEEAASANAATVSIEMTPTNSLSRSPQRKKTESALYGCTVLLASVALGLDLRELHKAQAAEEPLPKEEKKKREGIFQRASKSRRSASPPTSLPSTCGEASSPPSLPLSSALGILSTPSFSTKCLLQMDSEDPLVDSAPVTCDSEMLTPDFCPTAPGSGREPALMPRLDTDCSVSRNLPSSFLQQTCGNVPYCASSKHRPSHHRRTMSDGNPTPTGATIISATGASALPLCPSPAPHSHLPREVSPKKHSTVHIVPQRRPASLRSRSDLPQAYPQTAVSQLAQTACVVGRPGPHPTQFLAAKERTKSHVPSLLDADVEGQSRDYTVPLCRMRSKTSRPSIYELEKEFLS
T2 sequence (Q5TCX8 whole entry): as above

B1: IL-17RB ΔV403˜S416 (Del-3), HA-tagged (receptor)
chain: REPTVQCGSETGPSPEWMLQHDLIPGDLRDLRVEPVTTSVATGDYSILMNVSWVLRADASIRLLKATKICVTGKSNFQSYSCVRCNYTEAFQTQTRPSGGKWTFSYIGFPVELNTVYFIGAHNIPNANMNEDGPSMSVNFTSPGCLDHIMKYKKKCVKAGSLWDPNITACKKNEETVEVNFTTTPLGNRYMALIQHSTIIGFSQVFEPHQKKQTRASVVIPVTGDSEGATVQLTPYFPTCGSDCIRHKGTVVLCPQTGVPFPLDNNKSKPGGWLPLLLLSLLVATWVLVAGIYLMWRHERIKKTSFSTTTLLPPIKVLVVYPSEICFHHTICYFTEFLQNHCRSEVILEKWQKKKIAEMGPVQWLATQKKAADKVVFLLSNDVNSENSQDLFPLAFNLFCSDLRSQIHLHKYVVVYFREIDTKDDYNALSVCPKYHLMKDATAFCAELLHVKQQVSAGKRSQACHDGCCSL
notes: Deletion of the flexible loop; also called Del-3 mutant; not shown: HA tag
For B1, the binding result (in the experiment with Flag-MLK4; in experiment [1]) was “no binding” each time.

B2: IL-17RB K470R, Flag-tagged (receptor)
chain: T6 sequence with K453R
notes: also called K470R-mutant IL-17RB; not shown: Flag tag
For B2, the binding result with ACT1, endogenous is on record as “no binding”; in the experiment with TRAF6, endogenous, “no binding”; with TAK1, endogenous it was “no binding”; in experiment [2] it was “binds”.
